Columns and labels:
[1] = tested on: NONcNZO-10 polygenic obese mice; assay: Body weight in NONcNZO-10 mice (Example 4, Table 19); type: in vivo
Description: Test animals: 40 male NONcNZO-10 polygenic obese mice obtained from Jackson Laboratory at 10 weeks of age weighing in the range of 26-32 g were used in this study.
Administration of NT-4/5: NT-4/5 was produced in E. coli as descried in U.S. Pat. No. 6,184,360. The mice were divided into 6 groups of equivalent body weight and baseline blood glucose distribution (6-7 mice per group). […] A “paired-fed” control group received daily injection of vehicle, but were only fed with the same amount of food the 3 mg/kg group consumed the previous day. On the day when the treatment started (day 1), a baseline blood samples were collected for measuring glucose and triglyceride. Triglyceride level was measured on day 10. At the end of the study (day 12), a terminal blood sample was collected to determine glucose, triglyceride, electrolytes (Na, K, Cl), testoterone, corticosterone, thyroid hormone (total T4) and thyroid stimulating hormone (TSH) levels. Electrolytes, free testosterone, T4 and TSH levels of serum samples were measured by AniLytics (Gaithesburg, M.D) according to the standard protocols employed by the vendor. Other analytes were measured as described above. Body weight, food intake were monitored 5 days per week through out the entire study. Daily water intake was measured from day 5 through day 7.

[2] = tested on: DIO mice; assay: Body weight after intravenous NT-4/5 in DIO mice, separate study (Example 5); type: in vivo; settings: i.v. 5 mg/kg on day 1 and day 4
Description: Two way ANOVA followed by Bonferroni's post-test were used for statistical analysis.

[3] = tested on: DIO mice; assay: Respiratory quotient and energy expenditure by indirect calorimetry (CCMS) in DIO mice (Example 9); type: in vivo
Description: Test animals: Mice with diet induced obesity (DIO) were used in this study. 29 male C57BL/6J mice were weaned at 4 weeks of age. Immediately after weaning they were put on 58% high fat diet (D12331i, Research Diet) through out the study. The DIO mice at 13 weeks of age weighing in the range of 28-40 g were used in this study.
Administration of NT-4/5: NT-4/5 was obtained from Genentech Inc. or produced as described in U.S. Pat. No. 6,184,360. The mice were divided into 2 groups of equivalent body weight distribution (8 mice per group). The mice were acclimated individually in the Comprehensive Cage Monitoring System (CCMS, Columbus Instruments) for 2 days, in preparation for the indirect calorimetry, before the treatment started. Each group received 5 daily subcutaneous doses of either vehicle or 10 mg/kg of NT-4/5, respectively. Body weight and food intake were monitored 5 days per week through out the entire study. […] The body composition, i.e. percent lean body mass, fat content, and bone density was determined the day both before treatment started (day 0) and the final day of treatment (day 5) with a PIXImus Mouse Densitometer (GE Lunar Medical Systems, Madison, Wis.) using software version 1.46. […]

[4] = tested on: lean C57BL/6 mice; assay: Body weight, food intake, nonfasting blood glucose, triglyceride in normal lean C57BL/6 mice (Example 11); type: in vivo; settings: for weight loss as compared to the vehicle control group: female C57BL/6 mice, day 2
Method: Test animals: Mice with normal diet were used in this study.
Administration of NT-4/5: NT-4/5 was produced as described in U.S. Pat. No. 6,184,360. The mice were divided into 5 groups of equivalent baseline body weight, food intake and nonfasting blood glucose level distribution (8 mice per group). Each group received 4 daily subcutaneous doses of vehicle, 1 mg/kg, 2 mg/kg, 5 mg/kg or 10 mg/kg of NT-4/5, respectively, from day 1 to day 4. Body weight and food intake were monitored on daily basis. The non-fasting blood glucose was measure as previously described once a week (day 1 and day 8).

[5] = molecular target: T1, human TrkA (Homo sapiens, UniProt P04629); assay: Receptor tyrosine phosphorylation in trkA expressing cell line; type: cell-based
T1 construct: expressed in transfected cells
T1 sequence (P04629 33-796): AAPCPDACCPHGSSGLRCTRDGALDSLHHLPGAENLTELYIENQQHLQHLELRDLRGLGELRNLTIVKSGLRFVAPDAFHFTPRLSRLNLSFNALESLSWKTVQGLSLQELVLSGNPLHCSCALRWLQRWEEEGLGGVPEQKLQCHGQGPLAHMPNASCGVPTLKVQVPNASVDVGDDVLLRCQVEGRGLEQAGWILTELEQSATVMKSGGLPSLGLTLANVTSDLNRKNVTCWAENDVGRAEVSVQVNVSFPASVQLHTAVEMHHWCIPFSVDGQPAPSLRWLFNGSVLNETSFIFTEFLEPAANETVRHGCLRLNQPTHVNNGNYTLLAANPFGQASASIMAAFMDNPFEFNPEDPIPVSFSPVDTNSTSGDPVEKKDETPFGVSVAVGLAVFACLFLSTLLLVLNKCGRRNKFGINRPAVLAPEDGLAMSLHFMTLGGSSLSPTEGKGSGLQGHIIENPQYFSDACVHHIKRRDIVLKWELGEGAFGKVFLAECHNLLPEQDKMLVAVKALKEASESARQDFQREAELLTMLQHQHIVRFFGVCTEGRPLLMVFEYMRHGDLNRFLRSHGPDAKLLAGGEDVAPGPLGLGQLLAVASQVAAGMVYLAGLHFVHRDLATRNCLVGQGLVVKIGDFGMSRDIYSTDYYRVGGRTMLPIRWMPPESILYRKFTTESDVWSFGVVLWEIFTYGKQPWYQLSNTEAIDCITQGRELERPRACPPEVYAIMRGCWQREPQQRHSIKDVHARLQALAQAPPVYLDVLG
Description: (§1) Assays of TrkB specific activation by pegylated NT-4/5: Stable cell lines expressing human TrkA, TrkB or TrkC were used to determine the functional activity, i.e. receptor phosphorylation, of NT-4/5 and pegylated NT-4/5 as previously described (Sadick et al. Experimental Cell Research 234: 354-361, 1997).
as §1, with “and different forms of” for “and”

[6] = lean male mice, 1, 2, 5 and 10 mg/kg s.c. daily, dose dependent

B1: NT-4/5: mature human neurotrophin-4/5 (SEQ ID NO:1), obtained from Genentech or produced in E. coli (protein, listed as Homo sapiens)
chain: GVSETAPASRRGELAVCDAVSGWVTDRRTAVDLRGREVEVLGEVPAAGGSPLRQYFFETRCKADNAEEGGPGAGGGGCRGVDRRHWVSECKAKQSYVRALTADAQGRVGWRWIRIDTACVCTLLSRTGRA
- body weight loss relative to the vehicle control ([1]; 1 mg/kg): about 5%
- body weight loss relative to the vehicle control ([1]; 3 mg/kg): about 10%
- body weight ([1]; dose dependent manner): reduced body weight
- reduction of body weight [2]: about 5%
- time reduced body weight maintained after the second dose [2]: at least 10 days
- respiratory quotient (RQ=Vco2/Vo2) ([3]; 10 mg/kg s.c. daily, P=0.0025): reduced the respiratory quotient
- estimated cumulative energy expenditure ([3]; day 1 to day 5, 10 mg/kg, vs vehicle): No change
- weight loss as compared to the vehicle control group ([4]; 5 mg/kg): about 8%
- weight loss as compared to the vehicle control group ([4]; 10 mg/kg): about 11%
- blood triglyceride [4, 6]: significantly reduced blood triglyceride
- body weight [4, 6]: significantly reduced the body weight
- food intake ([4]; lean male mice, 1, 5 and 10 mg/kg s.c. daily, dose dependent): significantly reduced food intake
- nonfasting blood glucose ([4]; lean male mice, 2, 5 and 10 mg/kg s.c. daily, dose dependent): significantly reduced nonfasting blood glucose
- receptor tyrosine phosphorylation of trkA-expressing cell line [5]: did not increase receptor tyrosine phosphorylation

From patent publication US20090203610A1, “METHODS OF TREATING OBESITY OR DIABETES USING NT-4/5” (RINAT NEUROSCIENCE CORPORATION, priority 2004, published 2009)
